From publication PMC7953435 (Cell host & microbe, 2021)

Molecular target: N-terminal domain of SARS-CoV-2 spike (NTD, residues 1–330) (SARS-CoV-2, UniProt P0DTC2)
Experiment: crystal structure

B1: antibody 2–51 Fab (Fab, V domains shown)
VH: QVQLVQSGAEVKKPGASVKVSCKVSGYTLIELSMHWVRQAPGKGLEWMGGFDPEDVETIYAQQFQGRVTMTEDTSTDTAYMELSSLRSEDTAVYYCATGWAYKSTWYFGYWGQGTLVTVSS
VL: QSALTQPPSASGSPGQSVTISCTGTSSDVGGYNYVSWYQQHPGKAPKLMIYEVSKRPSGVPDRFSGSKSGNTASLTVSGLQAEDEADYYCSSYAGSRMGFGGGTKLTVL
  binding result: binds
